Data taken from the nanobody polyreactivity screen of Harvey et al. (2022).

Test: yeast display, Sf9 membrane polyspecificity reagent, FACS + sequencing; frameworks hold sequencing errors
Outline: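 Polyreactivity labels are assigned by the sorting gate from which each nanobody was recovered. The gates were low and high (top ~1%), set on anti-HA fluorescence for expression and streptavidin fluorescence for reagent binding. Before sorting, galactose-induced (36–48 hours) yeast display cells were stained for 1 hour at 4 °C with 10% biotinylated, detergent-solubilized Sf9 membrane reagent.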

| Sequence | polyreactivity (PSR sort gate) |
| --- | --- |
| QVQLVDSGGGLVQAGGSLRLSCAASGSTFSDSPMGGYRQAPGKERELVAGITGGGGTYYADSVKGRFTISRDNAKNTVYLQMNSLKPEDTAVYYCAAGYGRRIRYGSEYDYWGQGTQVTVSS | low polyreactivity |
| QVQLVDSGGGLVQAGGSLRLSCAASGSTFSLYAMGWYRQAPGKEREMVASITWGGGSTYADSVKGRFTISRDNAKNTVYLQMNSLKPEDTAVYYCARKFRYRVLYDFAYDHWGLGTQVTVSS | low polyreactivity |
| QVQLVDSGGGLVQAGGSLRLSCAASGSTFSYYAMGWYRQAPGKERELVAAISYSGDSTYYADTVKGRFTISRDNAKNTVYLQMNSLKPEDSAVYYCNADSPFNGNLDRYFATLDDYWGQGTQVTVSS | low polyreactivity |
| QVQLVDSGGGLVQAGGSLRLSCAASGSTFVTYAMRWYRQAPVKERELVAAITEDGASTYYADSVKGRFTISRDNAKNTVYFQLNSLYPEDTAVYYCAADPTYWPVWYVLYDYWGQGTQVTVSS | low polyreactivity |
| QVQLVDSGGGLVQAGGSLRLSCAASGSTFYYYAMGWYRQAPGKERELVAAITYSGGSTTYADSVKGRFTFSRDNAKNTVYLQMNSLKPEDTAVYYCAAYVYRYHRVAYEYWGQGTQVTVSS | high polyreactivity |
| QVQLVDSGGGLVQAGGSLRLSCAASGSTLNVYAMGWSRQAPGKERELVATIRRRGTSTYYADSVKGRFTISRDNAKNTVYLQMNSLKPEDTAVYYCAADTRTYRLSSGSGHWEYDYWGQGTQVTVSS | high polyreactivity |
| QVQLVDSGGGLVQAGGSLRLSCAASGSTVKYAMGWYRQAPGKERELVASIRRSGGSTYYADSVKGRFTISRDNAKITVYLKMNSLNPEDTAVYYCAAPLFRWMDYWGQGTQVTVSS | high polyreactivity |
| QVQLVDSGGGLVQAGGSLRLSCAASGYIFSANAMGWYRQAPGKERELVAVISWNGDGTYYADSVKGRFTISRDNAKNTVYLQMNSLKAEDTAVYYCAALSYAYRSQSRRYGYRFDYWGQGTQVTVSS | high polyreactivity |
| QVQLVDSGGGLVQAGGSLRLSCAATGRIFAGYAMGGYRQAPGKERELVAAISDGGTTNYADSVKGRFTISRDNAKNTVYLQMNILKPEDTAVYYCAKDAAESYRYGYWGQGTQVTVSS | low polyreactivity |
| QVQLVDSGGGLVQAGGSLRLSCAATGTIFAAYVMGWYRQAPGKERELVAAISYSGGGTYYADSVNGRFTISRDNAKNTVYIQMNSLKPEDTAVYYCAADFGVFKSARYYYWGQGTQVTVSS | low polyreactivity |
| QVQLVDSGGGLVQAGGSLRLSCAAYGSTFRGYAMGWYRPAPGKERELVAAISWSGGITYYADSVKGRFTISRDNAKNTVYLQMNRLKPEDTAVYYCAAVWDQVSDRYMLEYCGQGTQVTVSS | high polyreactivity |
| QVQLVDSGGGLVQAGGSLRLSCAPSGTTYPGYAMGWYRQAPGKERELFAAIDRGGSTSYADSVKGRFTISRDNAKITVYLQMNSLKPEDTAFYYCAAEASVVHKSSDYDSWGQCTQVTVSS | low polyreactivity |
| QVQLVDSGGGLVQAGGSLRLSCASSGFIFQYNTMGWSRQAPGKERELVAVITRTGSTNYADSVKGRFTISRDNANNTVYLQMNSLKPEDTAVYYCATSVYSRPRKPRYYYWGQGTQLTVSS | high polyreactivity |
| QVQLVDSGGGLVQAGGSLRLSCSASGFTFAWYAMGWYRQAPGKERELVAAISGSGGRTYYADSVMGRFTISRDNAKNTVYLQMNSLIPEDTAVYYCATRRRYEYYWGQGTQVTVSS | high polyreactivity |
| QVQLVDSGGGLVQAGGSLRLSSAASGFTFVAYAMGGYRQAPGKERELVATITKGGGGTYYADSVKGRFTISRDNAKNTVYLQMNSLKPEDTAVYYCAADRQYRGRTRYVYAPLYYWGHGTQVTVSS | high polyreactivity |
| QVQLVDSGGGLVQAGGSLRLSSAASGYIFVVNAMGWYRPAPGKERELVAAIDWGGGSTYADSVKGRFTISRDNAKNTVYLQMNSLKPEDTAVYYCAADLWPYPTDYWGQGTQVTVSS | low polyreactivity |

| Sequence | polyreactivity (PSR sort gate) |
| --- | --- |
| QVQLVDSGGGLVQAGGSLRLSWAASGSTFVYNAMGWYRQAPGKEREFVAGISRSGGSTYYADSVKGRFTISRDNAKNTVYFQMNSLKPEDTAVYYCNARGGLPKYGYWGQGTQVTVSS | high polyreactivity |
| QVQLVDSGGGLVQAGGSLRLTCAASGIIFYYYAMGWYRQAPGKERELVAAITGTGSRTYYADSVKGRFTISRDNAKNTVYLQMNSLKPEDTAVYYCNARSFATGSKVPARGYWGQGTQVTVSS | high polyreactivity |
| QVQLVDSGGGLVQAGGSLRLTCAASGKIFVPNAMGWNRQAPGKERELVAAIRRGGSTNYADSVKGRFTISRDNAKNSVYLQMNSLKPEDTAVYYCAKSRVSFTDLVGYYWGQGTQVTVSS | low polyreactivity |
| QVQLVDSGGGLVQAGGSLRLTCAASGSTIYKNTMGWDRQGPGKERELVAAITRGGSTYYADSVKGRVTISRDNAKNTVYLQMNSLKPEDTAVYYCNTLTRHRYGYDYWGQGTQVTVSS | high polyreactivity |
| QVQLVDSGGGLVQAGGTLRLSCAASGRIFYRYAMGWYRQAPGKERELVASITRSGITHYADSVKGRFTISRDNAKNTVYLQMNSLKPEDTAVYYCKARRGSPAPYDYWGQGTQVTVSS | high polyreactivity |
| QVQLVDSGGGLVQAGGTLRLSCAASGSTLYFYAMGWYRLAPGKERELVAAITYIGGRTSYADSVKGRFTISRDNAKNTVYLQMNSLKPEDTAVYYCAAAPYGYRRYEYWGQGTQVTVSS | high polyreactivity |
| QVQLVDSGGGLVQAGVSLRLSCAASGSIFRGNAMGWYRQAPVKERELVAAINKSGGSTYYADSVKGRFTISRDNAKNTVYLQMNSLKQEDTAVYYCAAVYKRLQPYGYWGQGTQVTVSS | high polyreactivity |
| QVQLVDSGGGLVQAVGSLRLSCAASGRTFYANAMGWYRQAPGKERELVAAISSRSGTTHYADSVKGRFTISRDNAKNTVYLQMNSLKPEDTAVYYCNRQKWRLLTMGAHNRQAYDSWGQGTQVSVSS | low polyreactivity |
| QVQLVDSGGGLVQEGGSLRISCAASGFTFPRNAMGWYIQAPGKERELVAAINSGGGTNYADSVKGRFTISRDNAKNTVYLQMNSLKPEDTAVYYCAKDHGSFEMDYWGLGTQVTVSS | low polyreactivity |
| QVQLVDSGGGSVQAGGSLRLSCAASGSTFYENAMGWYRQAPGKERELVAAITWSGGRTYYADSVKGRFTISRDNAKNTVYLQMYSLKPEDTAVYYCNARERSRKFYYWGQGTQVTVSS | high polyreactivity |
| QVQLVDSGGVLFQAGVSLLISCYASGITFYSYALGRNRRAPGKDWELVASITKSSGRTYYADSVKGRFTISRDNAKTTVSLQMNSVKPEDTAVYYCKAYYVALPPNMDYWGQGTQVTVSS | high polyreactivity |
| QVQLVDSGGVLVQAGGSLRLSCAASGFTFRDYAMGWYRQAPGKERELVAAISRSGDSTYYADSVKGRFTISRDNAKNTVYLQMNSLKPEDTAVYYYAAKRRYTTYDYWGQGTQVTVSS | high polyreactivity |
| QVQLVDSGGYLVQAGGSLRLSCAASGTTSLFYAMGWYRQAPGKERELVAAISRTGSTHYADSVKGRFTIARANAKYTVYLQMNSLKAEDTAVYYCAAYYRYRSGRYYYWGQGTQVTVSS | high polyreactivity |
| QVQLVDSGRGLVQAGGSLRLSCAASGFTVGVNAMGWDRQAPGKERELVAAITRSGGTTYYADSVQGRFTISRDKAKNTVYLQMNSLKPEDTAVYYCNRRARSYADDYWGQGTQVTVSS | high polyreactivity |
| QVQLVDSGVGLVQAGGSLRLTCAASGITFYYYAMGWYRQAPGKERELVARISSGGSTNYSDSVNGRFTISRDNAKNTVYLQMISLKPEDTAVYYCAAVRHRAMDYWGQGTQVTVSS | low polyreactivity |
| QVQLVDSVGGLVQAGGTHRLSCAASGSIFEIYAMGWYRQAPGKERELVASITSSGGSTYYADSVKGRFTISRDYAKNTVYLQMNSLKPEDTAVYYCATDKRYGRTVRMDYWGQGTQVTVSS | low polyreactivity |
